Publication PMC8857470, “Molecular insights into the maturation of phosphodiesterase 6 by the specialized chaperone complex of HSP90 with AIPL1” (The Journal of Biological Chemistry, 2022)
“And” between values parts separate entries of the source, which are not always exact repeats. Equal values may be shown once.

Tests used:
Conditions in all cases: both partners purified
[1] = target: T1, Avi-tagged HSP90β (full-length human HSP90β, residues 1–724) (human, UniProt P08238 1-724, biotin (in vivo biotinylation, N-terminally biotinylated)); experiment: BLI; HSP90_(AMPPNP) (closed state): biotinylated Avi-tagged HSP90β on streptavidin sensors, AIPL1 or mutants in solution; Octet RED96, 26 °C, 25 mM Tris, 200 mM NaCl, 2.5% glycerol, 1 mM TCEP, 0.5 mg/ml BSA, pH 7.5; 1:1 kinetic fit (KD = koff/kon) and steady-state fit
T1 construct: HSP90β, human, residues 1-724, cDNA isolated from HEK293T cells; Modified pET21a vector: N-terminal His6-tag, then the Avi tag, then a TEV cleavage site; Used apo (open state) or after incubation with AMPPNP (closed state); the two states are told apart by the assay; Host surmised to be E. coli; also called His6-Avi-tagged HSP90β; N-terminally biotinylated hHSP90B; source: cells grown in TB media …
T1 sequence (P08238 whole entry, the tested form may be a part): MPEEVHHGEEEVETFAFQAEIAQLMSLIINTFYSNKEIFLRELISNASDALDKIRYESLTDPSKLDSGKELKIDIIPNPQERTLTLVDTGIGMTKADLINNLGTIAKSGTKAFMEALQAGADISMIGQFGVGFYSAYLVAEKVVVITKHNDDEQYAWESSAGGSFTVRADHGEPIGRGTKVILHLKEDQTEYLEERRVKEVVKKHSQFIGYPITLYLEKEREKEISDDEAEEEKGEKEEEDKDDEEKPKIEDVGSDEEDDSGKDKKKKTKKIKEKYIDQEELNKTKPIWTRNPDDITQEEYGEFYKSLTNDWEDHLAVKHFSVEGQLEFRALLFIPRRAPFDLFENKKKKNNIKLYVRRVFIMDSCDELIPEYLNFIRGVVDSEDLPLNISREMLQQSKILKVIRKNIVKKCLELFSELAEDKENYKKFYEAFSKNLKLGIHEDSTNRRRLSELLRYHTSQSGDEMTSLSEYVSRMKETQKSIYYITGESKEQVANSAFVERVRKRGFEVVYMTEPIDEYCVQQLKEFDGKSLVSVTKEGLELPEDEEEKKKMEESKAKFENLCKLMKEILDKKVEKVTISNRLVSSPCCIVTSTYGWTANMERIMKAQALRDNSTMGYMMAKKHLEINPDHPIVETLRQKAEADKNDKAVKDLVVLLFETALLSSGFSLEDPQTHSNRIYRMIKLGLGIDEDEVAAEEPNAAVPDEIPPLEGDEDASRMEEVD

[2] = target: T1, Avi-tagged HSP90β (full-length human …); experiment: BLI; apo HSP90: biotinylated Avi-tagged HSP90β on streptavidin sensors, AIPL1 in solution; Octet RED96, 26 °C, 25 mM Tris, 200 mM NaCl, 2.5% glycerol, 1 mM TCEP, 0.5 mg/ml BSA, pH 7.5; 1:1 kinetic fit (KD = koff/kon) and steady-state fit
[3] = target: T2, full-length human HSP90β (residues 1–724), pET15b construct (human, UniProt P08238 1-724); experiment: cross-linking + other: mass photometry; DSS (0.5 mM) or glutaraldehyde (0.03%) added to HSP90β (15 μM), AIPL1 (25 μM) or their mixture (HSP90_(AMPPNP)/AIPL1), 15 to 30 min at 25 °C, 25 mM Hepes pH 7.5, 200 mM NaCl, 5% glycerol, 1 mM TCEP; products on 3 to 8% Tris-acetate gel and by mass photometry
T2 construct: HSP90β, human, residues 1-724, cDNA isolated from HEK293T cells; Cloned into pET15b through Nco1-Nde1 sites; Host surmised to be E. coli; also called apo HSP90; HSP90_(AMPPNP); source: purified by SEC
T2 sequence (P08238 whole entry, the tested form may be a part): as above

Row | Kd [1] | binding result [1] | Kd [2] | koff [2] | kon [2] | koff [1] | kon [1] | stoichiometry N [3] | Binder
1 | 27 µM |  |  |  |  |  |  |  | AIPL1_(1–316) (domain or fragment, mouse, UniProt Q924K1 1-316, looked up, source: E. coli BL21-(DE3), purified (Ni-NTA, Mono Q5, SEC)) MDVSLLLNVEGVKKTILHGGTGELPSFITGSRVTFHFRTMKCDDERTVIDDSKQVGQPMSIIIGNMFKLEVWETLLTSMRLGEVAEFWCDTIHTGVYPMLSRSLRQVAEGKDPTSWHVHTCGLANMFAYHTLGYEDLDELQKEPQPLVFLIELLQVEAPNEYQRETWNLNNEERMQAVPLLHGEGNRLYKLGRYDQAATKYQEAIVCLRNLQTKEKPWEVEWLKLEKMINTLILNYCQCLLKKEEYYEVLEHTSDILRHHPGIVKAYYMRARAHAEVWNAEEAKADLEKVLELEPSMRKAVLRELRLLESRLADKQ
2 |  | binds |  |  |  |  |  |  | AIPL1-Δα3 (Δ111–132) (natural protein, mouse, AIPL1, mouse, residues before the replaced stretch 111-132; five glycine residues that replace residues 111 to 132 of AIPL1 (told in words); AIPL1, mouse, residues after the replaced stretch 111-132, to the end of the full-length protein (aa 328); also called AIPL1-Δα3 (loop deletion); α3-helix deletion; source: E. coli BL21-(DE3), purified (Ni-NTA, Mono Q5, SEC)) MDVSLLLNVEGVKKTILHGGTGELPSFITGSRVTFHFRTMKCDDERTVIDDSKQVGQPMSIIIGNMFKLEVWETLLTSMRLGEVAEFWCDTIHTGVYPMLSRSLRQVAEGGGGGGGYEDLDELQKEPQPLVFLIELLQVEAPNEYQRETWNLNNEERMQAVPLLHGEGNRLYKLGRYDQAATKYQEAIVCLRNLQTKEKPWEVEWLKLEKMINTLILNYCQCLLKKEEYYEVLEHTSDILRHHPGIVKAYYMRARAHAEVWNAEEAKADLEKVLELEPSMRKAVLRELRLLESRLADKQEEERQRCRSMLG
3 | 4.8 µM |  | ~17 µM and 32 µM and 33 µM | 1.2 s⁻¹ | 71000 M⁻¹ s⁻¹ | 0.32 s⁻¹ | 150000 M⁻¹ s⁻¹ | 0.5 AIPL1 per HSP90 chain (1:2) | full-length mouse AIPL1 (aa 1–328) (natural protein, UniProt Q924K1 1-328, looked up, also called wt AIPL1; source: E. coli BL21-(DE3), purified (Ni-NTA, Mono Q5, SEC)) MDVSLLLNVEGVKKTILHGGTGELPSFITGSRVTFHFRTMKCDDERTVIDDSKQVGQPMSIIIGNMFKLEVWETLLTSMRLGEVAEFWCDTIHTGVYPMLSRSLRQVAEGKDPTSWHVHTCGLANMFAYHTLGYEDLDELQKEPQPLVFLIELLQVEAPNEYQRETWNLNNEERMQAVPLLHGEGNRLYKLGRYDQAATKYQEAIVCLRNLQTKEKPWEVEWLKLEKMINTLILNYCQCLLKKEEYYEVLEHTSDILRHHPGIVKAYYMRARAHAEVWNAEEAKADLEKVLELEPSMRKAVLRELRLLESRLADKQEEERQRCRSMLG
